Assay results published in patent US20150118700.

T1: α-fructosyl hexapeptide (α-fructosyl-valyl-histidyl-leucyl-threonyl-propyl-glutamic acid)
T1 chain: VHLTPE

T2: α-fructosyl valyl histidine
T2 chain: VH


What was measured:
[1] = molecular target: T1, α-fructosyl hexapeptide …
[2] = molecular target: T2, α-fructosyl valyl histidine

Protein | Specific activity (U/mg), 1 mM αF6P [1] | αF6P oxidation activity, relative to αFVH oxidation activity designated to be 100 (relative (αFVH = 100)) [1] | Specific activity (U/mg), 1 mM αFVH [2] | also measured
CFP-T7 (protein) MTSNRADTRVIVVGGGGTIGSSTALHLVRSGYAPANITVLDTFEIPSAQSAGHDLNKIMGIRLRNKVDLQMSLEARQMWKEDELFQPFFHNTGRMDCEHTPEGIEDLKKQYQALHDAGAGLEKTHAWLDNEDEILSKMPLLQRDQIQGWKAIWSQDGGWLAAAKAINAIGQFLKERGVKFGFGGAGSFKQPLFDDEGTTCIGVETADGTKYYADKVVLAAGAWSPTLVDLEDQCCSKAWVYAHIQLTPEEAAEYKGVPVVYNGEFGFFFEPDEFGVIKVCDEFPGFSRFKEHQPYGAPSPKRISVPRSHAKHPTDTYPDASEVSIKKAIATFLPRFQDKELFNRALCWCTDTADAALLMCEHPKWKNFILATGDSGHSFKILPNVGKYVVELIEGRLPEEMAYQWRWRPGGDALKSRRAAPPKDLADMPGWKHDPKL | 0 U/mg | 0 | 16.5 U/mg | ΔA at 751 nm (hydrogen peroxide generated upon oxidation of αF6P) against αF6P concentration [1]: no correlation was observed between ΔA and αF6P concentration
CFP-T7-H20 (protein) MTSNRADTRVIVVGGGGTIGSSTALHLVRSGYAPANITVLDTFEIPSAQSAGHDLNKIMGIDLRNKVDLQMSLEARQMWKEDELFQPFFHNTGRMDCEHTPEGIEKLKKLYQKLHDAGAGLEKTHAWLDNEDEILSKMPLLQRDQIQGWKAIWSQDGGWLAAAKAINAIGQFLKERGVKFGFGGAGSFKQPLFDDEGTTCIGVETADGTKYYADKVVLAAGAWSPTLVDLEDQCCSKAWVYAHIQLTPEEAAEYKGVPVVYNGEFGFFFEPDEFGVIKVCDEFPGFSRFKEHQPYGAPSPKRISVPRSHAKHPTDTYPDASEVSIKKAIATFLPRFQDKELFNRALCWCTDTADAALLMCEHPKWKNFILATGDSGHSFKILPNVGKYVVELIEGRLPEEMAYQWRWRPGGDALKSRRAAPPKDLADMPGWKHDPKL | 0.85 U/mg | 20.5 | 4.28 U/mg | αF6P oxidation activity ratio (reference, designated to be 100) (relative (CFP-T7-H20 = 100)) [1]: 100
CFP-T7-H21 (protein) MTSNRADTRVIVVGGGGTIGSSTALHLVRSGYAPANITVLDTFEIPSAQSAGHDLNKIMGIDLRNKVDLQMSLEARQMWKEDELFQPFFHNTGRMDCEHTPEGIEKLKKLYQRLHDAGAGLEKTHAWLDNEDEILSKMPLLQRDQIQGWKAIWSQDGGWLAAAKAINAIGQFLKERGVKFGFGGAGSFKQPLFDDEGTTCIGVETADGTKYYADKVVLAAGAWSPTLVDLEDQCCSKAWVYAHIQLTPEEAAEYKGVPVVYNGEFGFFFEPDEFGVIKVCDEFPGFSRFKEHQPYGAPSPKRISVPRSHAKHPTDTYPDASEVSIKKAIATFLPRFQDKELFNRALCWCTDTADAALLMCEHPKWKNFILATGDSGHSFKILPNVGKYVVELIEGRLPEEMAYQWRWRPGGDALKSRRAAPPKDLADMPGWKHDPKL | 0.795 U/mg | 20.8 | 4.05 U/mg | –
PnFX-62D/106K/110L/113K (protein) MAPSRANTSVIVVGGGGTIGSSTALHLVRSGYTPSNVTVLDAYPIPSSQSAGNDLNKIMGVDLRNPVDLQLALEARQMWNEDELFKKFFHNTGRLDCAHGEKDIAKLKSLYQKLVDAGLDATNEWLDSEDEILKRMPLLSRDQIKGWKAIFSKDGGWLAAAKAINAVGEYLRDQGVRFGFYGAGSFKAPLLAEGVCIGVETVDGTRYYADKVVLAAGAWSPTLVELHEQCVSKAWVYGHIQLTPEEAARYKNSPVVYNGDVGFFFEPNEHGVIKVCDEFPGFTRFKMHQPFGAKAPKRISVPRSHAKHPTDTIPDASDVSIRRAIATFMPQFKNKKMFNQAMCWCTDTADAALLICEHPEWKNFVLATGDSGHSFKLLPNIGKHVVELLEGTLADDLAHAWRWRPGSGDALKSRRSAPAKDLADMPGWNHDKPRANL | 0.125 U/mg | – | – | specific activity on αF6P, fold over PnFX [1]: specific activity was elevated by 13.7 fold
PnFX-62D/63H/106K/110L/113K/351S (protein) MAPSRANTSVIVVGGGGTIGSSTALHLVRSGYTPSNVTVLDAYPIPSSQSAGNDLNKIMGVDHRNPVDLQLALEARQMWNEDELFKKFFHNTGRLDCAHGEKDIAKLKSLYQKLVDAGLDATNEWLDSEDEILKRMPLLSRDQIKGWKAIFSKDGGWLAAAKAINAVGEYLRDQGVRFGFYGAGSFKAPLLAEGVCIGVETVDGTRYYADKVVLAAGAWSPTLVELHEQCVSKAWVYGHIQLTPEEAARYKNSPVVYNGDVGFFFEPNEHGVIKVCDEFPGFTRFKMHQPFGAKAPKRISVPRSHAKHPTDTIPDASDVSIRRAIATFMPQFKNKKMFNQAMCWCTDTADSALLICEHPEWKNFVLATGDSGHSFKLLPNIGKHVVELLEGTLADDLAHAWRWRPGSGDALKSRRSAPAKDLADMPGWNHDKPRANL | 0.667 U/mg | – | – | –
amadoriase exhibiting 95% sequence identity with ketoamine oxidase derived from Curvularia clavata (Cc95FX) (protein) MAPSRANTSVIVVGGGGTIGSSTALHLVRSGYTPSNITVLDAYPIPSSQSAGNDLNKIMGIRLRNKVDLQLSLEARQMWREDDLFKEYFHNTGRLDCAHGEEGLADLRQAYQALLDANAGLEETTEWLDSEDEILKKMPLLSRDQIKGWKAVYSQDGGWLAAAKAINAIGEYLRAQGVKFGFGGAGSFKQPLLAEGVCIGVETVDGTRYYADKVVLAAGAWSPTLVELHEQCVSKAWVYGHIQLTPEEAAEYKNSPVVYNGDVGFFFEPNEHGVIKVCDEFPGFTRFKMHQPFGAKAPKRISVPRSHAKHPTDTIPDASEKSIRKAIATFLPKFTEKELFNRHLCWCTDTADAALLICEHPEWKNFVLATGDSGHSFKLLPNIGKHVVELLEGTLADDLAHAWRWRPGSGDALKSRRSAPAKDLADMPGWKHDDVVKSKL | – | 0 | – | –
Cc95FX-62D/63H/106K/110L/113K/353S (protein) MAPSRANTSVIVVGGGGTIGSSTALHLVRSGYTPSNITVLDAYPIPSSQSAGNDLNKIMGIDHRNKVDLQLSLEARQMWREDDLFKEYFHNTGRLDCAHGEEGLAKLRQLYQKLLDANAGLEETTEWLDSEDEILKKMPLLSRDQIKGWKAVYSQDGGWLAAAKAINAIGEYLRAQGVKFGFGGAGSFKQPLLAEGVCIGVETVDGTRYYADKVVLAAGAWSPTLVELHEQCVSKAWVYGHIQLTPEEAAEYKNSPVVYNGDVGFFFEPNEHGVIKVCDEFPGFTRFKMHQPFGAKAPKRISVPRSHAKHPTDTIPDASEKSIRKAIATFLPKFTEKELFNRHLCWCTDTADSALLICEHPEWKNFVLATGDSGHSFKLLPNIGKHVVELLEGTLADDLAHAWRWRPGSGDALKSRRSAPAKDLADMPGWKHDDVVKSKL | – | 237 | – | –
CFP-T7-H2-62N (protein) MTSNRADTRVIVVGGGGTIGSSTALHLVRSGYAPANITVLDTFEIPSAQSAGHDLNKIMGINLRNKVDLQMSLEARQMWKEDELFQPFFHNTGRMDCEHTPEGIEDLKKLYQALHDAGAGLEKTHAWLDNEDEILSKMPLLQRDQIQGWKAIWSQDGGWLAAAKAINAIGQFLKERGVKFGFGGAGSFKQPLFDDEGTTCIGVETADGTKYYADKVVLAAGAWSPTLVDLEDQCCSKAWVYAHIQLTPEEAAEYKGVPVVYNGEFGFFFEPDEFGVIKVCDEFPGFSRFKEHQPYGAPSPKRISVPRSHAKHPTDTYPDASEVSIKKAIATFLPRFQDKELFNRALCWCTDTADAALLMCEHPKWKNFILATGDSGHSFKILPNVGKYVVELIEGRLPEEMAYQWRWRPGGDALKSRRAAPPKDLADMPGWKHDPKL | – | – | – | αF6P oxidation activity ratio, relative to CFP-T7-H2 designated to be 100 (relative (CFP-T7-H2 = 100)) [1]: 120
